Test results published in paper doi:10.1101/2024.03.25.586624.

What was measured:
[1] = molecular target: synthetic sfGFP peptide, peptide variant 14; test: AlphaScreen or HTRF
[2] = molecular target: synthetic sfGFP peptide, peptide variant 9; test: AlphaScreen or HTRF

## MBP-TbtF RRE domain (domain or fragment)
[1]
  fold of the AlphaLISA signal of the wild-type TbtA leader sequence: 2 fold
[2]
  AlphaLISA signal, percent of the wild-type TbtA leader sequence: 25%
